Assays:
[1] = molecular target: HIV envelope gp120 of HIV recombinant strain NL43 that expresses GFP (HIV-1); assay: cell-based or functional assay
[2] = molecular target: HIV envelope gp120 of HIV-1 strain HXB2 engineered to express Green Fluorescence Protein (HIV-1) (UniProt P04578); assay: cell-based or functional assay

## 3BNC117 antibody (IL-2 secretory signal construct, expressed from AGT112)
[1]
  % GFP positive (HIV-infected) cells, transduced PBMC, donor NY025 (control without vector 3.96%): 1.79%
  % GFP positive (HIV-infected) cells, transduced PBMC, donor NY026 (control without vector 0.57%): 0.3%

## VRC01 antibody (IL-2 secretory signal construct, expressed from AGT111)
[1]
  % GFP positive cells, CD4 T cells, AGT111 at 2 MOI, day 5 (no vector 0.71%): 0.38%
  % GFP positive cells, CD4 T cells, AGT111 at 2 MOI, day 7 (no vector 2.18%): 1.37%
  % GFP positive cells, CD4 T cells, AGT111 at 4 MOI, day 5 (no vector 0.71%): 0.32%
  % GFP positive cells, CD4 T cells, AGT111 at 4 MOI, day 7 (no vector 2.18%): 0.94%
  % GFP positive cells, CD4 T cells, AGT111 at 8 MOI, day 5 (no vector 0.71%): 0.25%
  % GFP positive cells, CD4 T cells, AGT111 at 8 MOI, day 7 (no vector 2.18%): 0.36%
  decrease in HIV infection, C8166 cells: 75.4%
  percent inhibition (cells protected), day 5, AGT111 MOI 8: 88%
  percent inhibition (cells protected), day 7, AGT111 MOI 8: 93%
  percent inhibition (cells protected), day 9, AGT111 MOI 2: 6%
  percent inhibition (cells protected), day 9, AGT111 MOI 4: 7%

## VRC01 antibody (antibody secretory signal construct, expressed from AGT113)
[1]
  % HIV positive primary CD4 T cells, AGT113-transduced (un-transduced 1.28%): 0.36%
  decrease in HIV infection, C8166 cells: 96.7%

## sCD4(D1+D2) (from UniProt P01730 26-203) (receptor)
[1]
  % GFP positive cells, FIG. 8A, AGT116-transduced PBMC (control 0.46%): 0.3%
  % GFP positive cells, FIG. 8B, AGT116-transduced PBMC (control 7.75%): 3.67%
  % HIV positive primary CD4 T cells, AGT116-transduced (control 2.83%): 2.65%

## sCD4(D1+D2)-IgG1 Fc (Fc fusion)
[1]
  % GFP positive C8166 cells, NL4-GFP with version 1, average: 8.47%
  % GFP positive C8166 cells, NL4-GFP with version 1, replicate 2: 7.49%
  % GFP positive cells, FIG. 8A, AGT117-transduced PBMC, column NL43-sCD4-Ig (control 0.46%): 0.26%
  % GFP positive cells, FIG. 8B, AGT117-transduced PBMC, column NL43-sCD4-Ig (control 7.75%): 2.98%
  % HIV positive primary CD4 T cells, AGT117-transduced (control 2.83%): 0.65%
  decrease in HIV infection, primary CD4 T cells: 77%
  proportion of infected CD4 T cells, AGT117-transduced (no vector average of 2%): 0.024%
  virus inhibition, NL4-GFP challenge of C8166 cells: 53%
[2]
  % GFP positive C8166 cells, HXB2-GFP with version 1, replicate 2: 1.22%
  inhibition of virus infection, HXB2-GFP challenge of C8166 cells: 91%

Reference: patent publication US20240279678A1
